Results: publication PMC2835468 (Matrix biology : journal of the International Society for …, 2009)

Columns and labels:
Test in all cases: enzyme inhibition kinetics
[1] = target: T1, ADAMTS4-2 (human ADAMTS-4 deletion mutant, C-terminal FLAG-tag) (human, UniProt O75173 213-685)
T1 sequence (looked up): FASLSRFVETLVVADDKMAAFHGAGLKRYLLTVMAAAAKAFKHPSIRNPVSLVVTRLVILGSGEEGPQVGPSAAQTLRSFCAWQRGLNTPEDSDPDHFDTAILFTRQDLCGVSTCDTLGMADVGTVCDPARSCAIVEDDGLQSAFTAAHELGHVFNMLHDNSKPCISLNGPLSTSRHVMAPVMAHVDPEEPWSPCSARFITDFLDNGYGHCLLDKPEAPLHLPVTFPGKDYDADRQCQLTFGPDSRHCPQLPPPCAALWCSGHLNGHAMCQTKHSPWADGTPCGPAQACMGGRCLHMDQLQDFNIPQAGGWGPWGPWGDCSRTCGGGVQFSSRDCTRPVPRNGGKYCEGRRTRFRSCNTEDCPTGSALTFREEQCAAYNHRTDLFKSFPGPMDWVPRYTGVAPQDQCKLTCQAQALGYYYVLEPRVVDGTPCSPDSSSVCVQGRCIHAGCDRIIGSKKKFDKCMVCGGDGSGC

[2] = target: T2, ADAMTS5-1 (full-length human ADAMTS-5, C-terminal FLAG-tag) (human, UniProt Q9UNA0 262-930)
T2 sequence (looked up): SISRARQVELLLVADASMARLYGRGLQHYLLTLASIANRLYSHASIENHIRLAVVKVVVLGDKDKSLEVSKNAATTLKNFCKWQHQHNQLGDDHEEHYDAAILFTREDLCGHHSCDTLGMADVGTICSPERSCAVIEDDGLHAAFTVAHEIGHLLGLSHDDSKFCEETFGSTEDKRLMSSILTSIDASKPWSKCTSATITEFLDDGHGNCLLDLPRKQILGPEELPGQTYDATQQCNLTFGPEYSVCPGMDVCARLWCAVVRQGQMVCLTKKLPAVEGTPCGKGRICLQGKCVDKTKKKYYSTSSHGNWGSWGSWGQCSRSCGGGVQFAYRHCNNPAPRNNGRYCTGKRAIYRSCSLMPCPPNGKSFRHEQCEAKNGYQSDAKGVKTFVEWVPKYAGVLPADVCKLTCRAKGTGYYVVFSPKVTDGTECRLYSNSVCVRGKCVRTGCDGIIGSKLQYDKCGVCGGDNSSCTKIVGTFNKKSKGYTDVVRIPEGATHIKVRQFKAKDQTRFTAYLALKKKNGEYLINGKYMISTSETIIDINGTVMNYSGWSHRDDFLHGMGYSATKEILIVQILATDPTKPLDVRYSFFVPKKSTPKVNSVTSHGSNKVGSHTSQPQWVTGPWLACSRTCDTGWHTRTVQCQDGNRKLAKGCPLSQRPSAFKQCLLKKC

[3] = target: T3, ADAMTS5-4 (human ADAMTS-5 deletion mutant, C-terminal FLAG-tag) (human, UniProt Q9UNA0 262-622)
T3 sequence (looked up): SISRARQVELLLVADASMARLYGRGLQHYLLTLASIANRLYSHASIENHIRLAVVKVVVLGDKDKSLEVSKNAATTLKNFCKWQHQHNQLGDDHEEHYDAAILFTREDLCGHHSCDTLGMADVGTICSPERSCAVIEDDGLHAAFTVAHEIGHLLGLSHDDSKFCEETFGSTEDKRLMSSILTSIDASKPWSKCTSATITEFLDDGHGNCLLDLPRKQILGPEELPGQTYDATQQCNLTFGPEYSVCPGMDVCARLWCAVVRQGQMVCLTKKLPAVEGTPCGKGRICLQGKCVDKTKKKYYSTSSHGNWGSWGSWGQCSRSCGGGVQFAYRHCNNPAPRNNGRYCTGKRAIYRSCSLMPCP

[4] = target: T4, ADAMTS5-3 (human ADAMTS-5 deletion mutant, C-terminal FLAG-tag) (human, UniProt Q9UNA0 262-731)
T4 sequence (looked up): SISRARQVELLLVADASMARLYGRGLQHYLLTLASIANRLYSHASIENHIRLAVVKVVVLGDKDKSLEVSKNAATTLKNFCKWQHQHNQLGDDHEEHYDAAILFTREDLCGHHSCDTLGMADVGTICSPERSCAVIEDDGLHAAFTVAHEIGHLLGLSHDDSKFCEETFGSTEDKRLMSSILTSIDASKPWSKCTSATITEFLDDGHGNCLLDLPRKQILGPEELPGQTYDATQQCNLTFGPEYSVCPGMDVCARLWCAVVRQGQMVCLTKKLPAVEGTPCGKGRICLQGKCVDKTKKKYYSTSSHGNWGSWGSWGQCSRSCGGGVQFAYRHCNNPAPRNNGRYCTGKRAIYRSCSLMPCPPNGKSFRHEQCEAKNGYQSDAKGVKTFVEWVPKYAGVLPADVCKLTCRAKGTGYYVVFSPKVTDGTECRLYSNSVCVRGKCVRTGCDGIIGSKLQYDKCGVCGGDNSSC

B1: FLAG-tagged glycosylated human TIMP-3 (full-length tissue inhibitor of metalloproteinases 3), expressed in HEK293 (natural protein, UniProt P35625 24-211, looked up)
chain: CTCSPSHPQDAFCNSDIVIRAKVVGKKLVKEGPFGTLVYTIKQMKMYRGFTKMPHVQYIHTEASESLCGLKLEVNKYQYLLTGRVYDGKMYTGLCNFVERWDQLTLSQRKGLNYRYHLGCNCKIKSCYYLPCFVTSKNECLWTDMLSNFGYPGYQSKHYACIRQKGGYCSWYRGWAPPDKSIINATDP
modifications: glycosylated (only the 27 kDa glycosylated form remained after purification; single N-glycosylation site in the C-terminal domain)
Ki [1]: 0.22 nM | Ki [2]: 0.63 nM | Ki [3]: 1.13 nM | Ki [4]: 1 nM
